Data as given in patent publication US20070105924A1, “Vigabatrin bioisoteres and related methods of use” (priority 2005, published 2007).

Columns and labels:
Experiment in all cases: purified protein, by the assay type
Conditions in all cases: other: substrate of GABA-AT, 1 h incubation, 25° C., pH 8.5
NCCCCc1nnn[nH]1 = tested on: NCCCCc1nnn[nH]1
Experimental: (§1) After incubation (48 h for the preliminary test, 1 h for determination of kinetic constants), the mixture was quenched with trichloroacetic acid. The resulting [^14C]glutamate was isolated by cation-exchange chromatography, and the DPM (disintegration per minute) value was measured. Controls consisted of the entire incubation mixture with substrates omitted. The substrate kinetic constants kcat and Km were determined by the method of Hanes and Woolf, as referenced above.
NCCCC(=O)O = tested on: NCCCC(=O)O
NCCc1nnn[nH]1 = tested on: NCCc1nnn[nH]1
Experimental: as §1

NCCCc1nnn[nH]1 = tested on: NCCCc1nnn[nH]1
Experimental: as §1

In the case of GABA-AT (Sus scrofa), the Km (NCCCCc1nnn[nH]1) is reported as 8000 µM, the kcat (NCCCCc1nnn[nH]1) is reported as 0.693 s⁻¹ and the kcat/Km (NCCCCc1nnn[nH]1) is reported as 86.7 M⁻¹ s⁻¹. For the same substance, the Km (NCCCC(=O)O) was 2400 µM, the kcat (NCCCC(=O)O) was 0.817 s⁻¹ and the kcat/Km (NCCCC(=O)O) was 340 M⁻¹ s⁻¹. It also gave a Km (NCCc1nnn[nH]1) of 2300 µM, a kcat (NCCc1nnn[nH]1) of 0.265 s⁻¹ and a kcat/Km (NCCc1nnn[nH]1) of 115 M⁻¹ s⁻¹. The Km (NCCCc1nnn[nH]1) was 2400 µM, the kcat (NCCCc1nnn[nH]1) was 0.477 s⁻¹ and the kcat/Km (NCCCc1nnn[nH]1) was 195 M⁻¹ s⁻¹.
